Consider 21 sequences from the DeepSol protein solubility set.

The nature of the series: soluble on expression in E. coli; label from the status in PepcDB or PDB records.
Turning to “RKPTALIILDGFGLREETYGNAVAQAKKPNFDGYWNKFPHTTLTACGEAVGLPEGQMGNSEVGHLNIGAGRIVYQSLTRVNVAIREGEFDKNETFQSAIKSVKEKGTALHLFGLLSDGGVHSHMNHMFALLRLAAKEGVEKVYIHAFLDGRDVGPKTAQSYIDATNEVIKETGVGQFATISGRYYSMDRDKRWDRVEKCYRAMVNGEGPTYKSAEECVEDSYANGIYDEFVLPSVIVNEDNTPVATINDDDAVIFYNFRPDRAIQIARVFTNGDFREFDRGEKVPHIPEFVCMTHFSETVDGYVAFKPMNLDNTLGEVVAQAGLKQLRIAETEKYPHVTFFFSGGREAEFPGEERILINSPKVATYDLKPEMSIYEVTDALVNEIENDKHDVIILNFANCDMVGHSGMMEPTIKAVEATDECLGKVVEAILAKDGVALITADHGNADEELTSEGEPMTAHTTNPVPFIVTKNDVELREDGILGDIAPTMLTLLGVEQPKEMTGKTIIK”, the “soluble on expression in E. coli” value is reported as “soluble”.

As for “MKNNPLISIYMPTWNRQQLAIRAIKSVLRQDYSNWEMIIVDDCSTSWEQLQQYVTALNDPRITYIHNDINSGACAVRNQAIMLAQGEYITGIDDDDEWTPNRLSVFLAHKQQLVTHAFLYANDYVCQGEVYSQPASLPLYPKSPYSRRLFYKRNIIGNQVFTWAWRFKECLFDTELKAAQDYDIFLRMVVEYGEPWKVEEATQILHINHGEMQITSSPKKFSGYFHFYRKHKDKFDRASKKYQLFTLYQIRNKRMTWRTLLTLLSVRNGKRLADGIRGRLEHHHHHH”, the “soluble on expression in E. coli” value was “soluble”.

With “MAPKDQAADMDYDQTKKMVVDILKTDDGKKAIKELLNDDAMNEALVIDQDAIKGTIEKTLTSKKGEEFWKNIFEDTDFAEGFAKTLQTEHEKVIKKLMKDPDYQKMLMSVMQDPGMDKKYSQLAKSQEFRSYLEEVINETLSSPLYKKQFEDELKKAAKDTAKESELEHHHHHH”, the “soluble on expression in E. coli” value is “soluble”.

For “RYPTNNFGNCTGCSATFSVLKKRRSCSNCGNSFCSRCCSFKVPKSSMGATAPEAQRETVFVCASCNQTLSK”, the “soluble on expression in E. coli” value is “soluble”.

In the case of “MSLVEKQSALESKARSWLIERGVEIDDIAELVLFLQQKYHPGLELDICRQNVEHVLRKREVQNAVLTGIQLDVMAEKGELVQPLQNIISADEGLYGVDEILALSIVNVYGSIGFTNYGYIDKVKPGILAKLNEHDGIAVHTFLDDIVGAIAAAAASRLAHSYHDDIVNEGGSHHHHHH”, the “soluble on expression in E. coli” value is listed as “soluble”.

In the case of “MVLAVKVQIKEGEKVRRKLIELGALNREYKIKREEGFLLIPVKFPVEGFEVVEVELERVETRPNSYKDVVNIPRELRKFLPSSFDIIGNIAIIEIPSELQNYSNEIGGAIIRVHKSVKAVYMKGGSVEGEYRVRNLIHIAGEKITETIHRENGVRLKLDITKVYFSPRLATERMRVFKMAREGEIVFDMFAGVGPFSILLAKKARMVFACDINPWAIKYLEENIKLNKVKNIIPILSDVTKVCVKADRIIMNLPKYASRFLEHAMRCVNNGGIIHYYGFGPEKDPYGWHVKRINEVAGRLGVKVEILGKRIIRNYAPRQYNIAIDFRVSF”, the “soluble on expression in E. coli” value is recorded as “soluble”.

For the sequence “MKRVRKAIIPAAGLGTRFLPATKAMPKEMLPIVDKPTIQYIVEEAVKSGIEDIIIVTGKTKRSIEDHFDNAFELEQNLLEKKKYELLEKVQASSKMVDIHYIRQKEPKGLGHAVWCARKFIGDEPFAVLLGDDIVQAEKPCLRQLIEEYDKTLSSVIGVQTVPEDETHRYGIIDPLEQEGRRYQVRNFVEKPAAGTAPSNLAIMGRYVLTPEIFMFLEQQHVGAGGEIQLTDAIQSLNEIQRVFAYDFEGKRYDVGEKLGFVQTTIEMALQHPELRDDMVTMMKKILEEQTNQES”, the “soluble on expression in E. coli” value is reported as “not soluble”.

For “MGSDKIHHHHHHMRIILYLGKGGVGKTTVSASTATAIARSGKRVLIMSTDVAHSLADAFGVELSSTPVEVEKNLFAMEVNILAEIRENWTELYSYFSSILMHDGTNEIVAEELAIVPGMEEMISLRYIWKAAKSGKYDAVVVDAAPTGETMRLLGMPESYGWYSEKIGGWHSKAIGFAAPLLSRFMPKKNIFKLMPEVNEHMKELHGMLQDKSITTFRVVLNPENMVIKEALRVQTYLNLFGYKLDAAVVNKVLPSNSSDPYLQALIDQQAKYLRVIDNCFYPVPIFRAMQSSKEVISTDRLYDLSQELFSGRNPMEVLYSNDKTQTLEKINGKYVLSLYLPNVEVDKLAVNIKGDELLVDINNFRKSIVLPNVLVGRKTEGADFEQGTLNITFAN”, the “soluble on expression in E. coli” value was “not soluble”.

Consider “GKKQEPYEQVTIDVEEQHQGSVMEALGIRKGEVRDMLPDGKGRVRLEYIIPSRGLIGFRGDFMTMTSGTGLLYSSFSHYDEIKGGEIGQRKNGVLISNATGKALGYALFGLQERGKLMIDANIEVYEGQI”, for which the “soluble on expression in E. coli” value was “not soluble”.

For “MSLHGRLRDILRLLMAAEAPVTSSFFAAQLNVTTRTVRNDIKELQGVLSGHGAFVQSVRGSGYKLRIDDEQVFRTLLQDEFQQKKGLPVLPEERMAYLMKRLLLADHYLKLDELAEELFISKSTLQTDLKEVKKRLLPYRIVMETRPNYGFKLRGDEVQMRYCMAEYIVDERETEIDVLNEKADILPKEEIEIIRSAILKKMKNDRIPLSNMGLNNLIIHIAIACKRIRTENYVSLFPKDMDHILHQKEYQAAEAIVKELESKLSVTFPKDETAYITMHLLGTKRMTQSQCGEDTFSIEEETDQLTLAMIKAVDRELKLGILHDKELKIGLALHMKPAISRNRYGMNLRNPMLAAIKEHYPLAFEAGIIAGIVIKEQTGIEIHENEIGYLALHFGAAIERKKTESPPKRCIIVCASGAGSAQLLREKLRSHFGKRLDILGTAEYYSLDQMSYESIDFVISTIPIKKELPVPVLKVNTILGGTDFTKIESILSDEKEKANRYLKKELVFFQEDLRSKEEVIQFLGQKVVECGFADEEIIDSIFEREDMSPTCFGNLVAIPHPLVPQTKTTFWAVCTLKKPIDWESQRVQFVCLLCVEKENKADLQSMYKLLGSILDDPAAMNQLIKCRSYQELSDVFDQKMLSEGHHHHHH”, the “soluble on expression in E. coli” value is listed as “soluble”.

Consider “MGSMVCDVCHHECETAKELESHRQSCINGQCPYCMTITEATESALQAHYSICKLTGR”, for which the “soluble on expression in E. coli” value is on record as “soluble”.

Consider “MLVGNIVKEVLAYKKGQIQQKLSSPQAFVSSRFQEKLQSEPAKETKGTTQLAKVEDMSQPVQSTKIETVVNKPEQSIHKVEEASKPEEKAETKNVDEVQVAQKEFERRFPETKNEAADTWGLTKKYNIQKIRSSNEGKYEDIIDRVSHTYGIPKTLIQKMIEVESDFNPKTVSHAGAKGLMQLMPANVKEMGIKNPFSPAESIEGGVKELSGYLKKNNGDLVLALASYNAGPGNVRKYGGVPPFKETQGYIKKILNIDVSK”, for which the “soluble on expression in E. coli” value was “not soluble”.

As to “MVEKIWFENHPLKYLLWPLLWPLSVLFGAISRSKRQQFQTGRKQAYQAPVPVVVVGNITAGGNGKTPVVVWLVEQLQHLGYKPGVVSRGYGAKAPQYPLVLNDDTPTQHCGDEPKLIHRRTGAPVAVDPVRANAVKALVELDVDIIITDDGLQHYALERDVELVIVDGNRRFGNECLIPLGPLREGVERLQEVDFIITNGGLAHQGEISMSLAPSKAINLKTKQQVDVSELKALVAFAGIGHPPRFFNTLESMHADVKVTKGFADHQDFDQKELEALALQGANVIMTEKDAVKCSDYAQDNWWYLPVSAQLEPKDAERILNRIKEVKATYGSPSAAAALEHHHHHH”, the “soluble on expression in E. coli” value was “soluble”.

Take “MGHHHHHHSHMKNMEQQHIEVVGKLGSTYGIRGWLRIYSSTEQAESIFDYQPWFLKIKGEWQSIELENWRYHNHEIIVKLKGVDDREAAQILANVEIGVDLSVFPELEEGDYYWHDLIGCTVVNLEGYTMGTVTEMMETGSNDVLVVKANTKDAFGKQERLIPFLYEQVVKRVDLTTKTIEVDWDAGF”: the “soluble on expression in E. coli” value was “soluble”.

With “SNAMAVETLYRSTRDLETTFVDRKLADAHDQMLELAELLTDVLIKNVPGLSEKHAEDASIYMAKNRAVFAAAFKNNATALSELSEPAESEG”, the “soluble on expression in E. coli” value was “soluble”.

As to “MSSQELVTLNVGGKIFTTRFSTIKQFPASRLARMLDGRDQEFKMVGGQIFVDRDGDLFSFILDFLRTHQLLLPTEFSDYLRLQREALFYELRSLVDLLNPYLLQPRPALVEVHFLSRNTQAFFRVFGSCSKTIEMLTGRITVFTEQPSAPTWNGNFFPPQMTLLPLPPQRPSYHDLVFQCGSDSTTDNQTGVRYVSIKPDNRKLANGTNVLGLLIDTLLKEGFHLVSTRTVSSEDKTECYSFERIKSPEVLITNETPKPETIIIPEQSQIKK”, the “soluble on expression in E. coli” value was “soluble”.

With “MLIDSFEDLDGVIQEIKFRLTRAPMEMGRERECCVLSTSPGCRRAASFPFVGDSSIIQASSLKVRSKSESEALNKMRLTQMNLETVRKRLSESTIKEKDEGSDYQSHSSSSSECEVDDLELFCAGPLELKEEEKLRKSVRFADDCGHELYMVRVATEPSNCPPKLSPSVLRRYRGESFEEEEMTTREPAPVWNLMFKQPAADYVRFRENMETNKVSLENVILNNEAYKVMGTIKVGNIAFEKSVFVRYTMNGWISYMDKAAIYQPSTSKIQDTFKFDLDLPSSVEKIHQIEFCICFKANGTEYWDSNSGTNYVLHCEQQQHPAVPQQRRASLFGSSKYLDRDDAYKLDYNDWGKFASWKALSTDGPYW”, the “soluble on expression in E. coli” value is reported as “soluble”.

Turning to “MGSDKIHHHHHHMKWNWQQPDWPDFRWNSEALAVHEARFLQQSGIMIGVVKHLGDEDRTSVVLDVMTDEAMKTSQIEGELLNRDSVQSSLRREFGLETEARRIPPAERGIAEMMMALFRDFAAPLTEEVLGDWHRLVLSGRSDIDVVGRYREHEDAMQVVSGALHKPTVHFEAPPSREMAAEMARFLEWFAATGPGGATPLPGLTRSGLAHLYFVTIHPFEDGNGRIGRAIAEKALSQAIGQPSLIALSQTIQRRRSAYYDALEAANKSNEISDWLAYWAETVLDAQTHSLALIDFLLEKTRFHDRYRGKLNPRQEKVIARMFREGLDGFKGGLSAANYITIADTSRATATRDLQELVALGAMGQTGTLKATRYHLILDAVAGTNPPVNQA”, the “soluble on expression in E. coli” value is listed as “not soluble”.

Regarding “MNQEDNTGGGGIFGLFKWTKDALFGTDISPSMKYKDQEERRDRSRYAQDDTNFSMKFGNDSNRRSTNLSRSNSWSGLDSTLHRKYELLPEYNENGFNSIVNGDHHSKERIRSLRSPAPIVPREPLRNEPTDTFGHRLHTKRRTINELSNSQIPFIPPQEDDPLLSKLFNKDGVNEVRRSPYKLSVKDIPGKFPSPLTKRDEIDNYYVRDEDACHKNREYKKAYFDLFAQMDLNSRDLEDLCEDVREQREQFHRNEQTYKQAYEEMRAELVNELKKSKTLFENYYSLGQKYKSLKKVLDQTISHEAELATSRERLYQEEDLKNFEIQTLKQRLSDLELKYTNLQIEKDMQRDNYESEIHDLLLQLSLRNNERKDTSAGSNIFSTGQ”, the “soluble on expression in E. coli” value is given as “soluble”.

As to “MGSDKIHHHHHHMSLLINLSFILTKPTGTTTYAFNLLPHLKPLQPTLLTSQYFPNYNSYQTPVNQTSEQGIKGHLRRLRWTQFKLPKIYNNLKSSLLFSPLPEAPLYTNCRFVITSFDMIPLRFPKRFSPLIPYHRYYTPQVLKQAQHIICISQTTAEDITNFYGIPANKITPILLAYDRTHFRPLNLATRNYFLYIGRQEPYKNIQRLLAAFAALPNHKDYELWLVGPSDLRYTPTLKTQVEELSITNQVKFLDYVPYSELPKIINEAIALVFPSLWEGFGLPVLEAMACGTPVITSNLSSLPEVAGDAAILIDPYNTVEITEAMQVIATNSALRSHLSSQGIIHCQQFSWEKTAKATAEVLSRYM”, the “soluble on expression in E. coli” value is “not soluble”.

With “MSSDKNGDILRPLSDSEVDELLDLYKVKFGIRNFHYLLLYNQRKWDRQLSEAQIPRNDLNHISLRKQFYTHRRGNFRTWGTYVSLHRDIVQSVSFFSWQPDGAAELWECLEQTQLIEWTQGALLTNVDLGFCNRVKELAVSRGVTAIQPRQCFGMVLSHEDAFCAKVPDLPSEFEIRRLRAEDAAMVHDSWPNKGEGSLTYLQALVRFNKSLGICRSDTGELIAWIFQNDFSGLGMLQVLPKAERRGLGGLLAAAMSREIARGEEITLTAWIVATNWRSEALLKRIGYQKDLVNEWIKLVPNSSLEHHHHHH”, the “soluble on expression in E. coli” value is “soluble”.
